Fewer inactive variants are shown than the library holds.
Legend:
[1] = tested on: biotinyl-Val-oxazolone; assay: self-aminoacylation, catalytic enhancement (BVO) (fold over background); higher = more active; k-Seq, kA / k0A0; sequences stand for … in GGGAAUGGAUCCACAUCUACGAAUUC…UUCACUGCAGACUUGACGAAGCUG
Procedure, shortened: (§1)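 Catalytic enhancement equals the median kA over the uncatalyzed rate, the latter read from the low-activity peak of a bimodal Gaussian fit. Values of kA came from fitting each sequence's fraction reacted to a pseudo-first-order model, with 1000 bootstraps. Reacted RNA was captured with streptavidin and quantified by triplicate qPCR and Illumina sequencing after 90 minutes at room temperature with 2–1250 μM biotinyl-aminoacyl-oxazolone and 0.43 μM mutagenized RNA pools bearing a 21-nt variable region.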

[2] = tested on: biotinyl-Trp-oxazolone; assay: self-aminoacylation, catalytic enhancement (BWO) (fold over background); higher = more active; k-Seq, kA / k0A0; sequences stand for … in GGGAAUGGAUCCACAUCUACGAAUUC…UUCACUGCAGACUUGACGAAGCUG
Procedure, shortened: as §1

[3] = tested on: biotinyl-Phe-oxazolone; assay: self-aminoacylation, catalytic enhancement (BFO) (fold over background); higher = more active; k-Seq, kA / k0A0; sequences stand for … in GGGAAUGGAUCCACAUCUACGAAUUC…UUCACUGCAGACUUGACGAAGCUG
Procedure, shortened: as §1

[4] = tested on: biotinyl-Leu-oxazolone; assay: self-aminoacylation, catalytic enhancement (BLO) (fold over background); higher = more active; k-Seq, kA / k0A0; sequences stand for … in GGGAAUGGAUCCACAUCUACGAAUUC…UUCACUGCAGACUUGACGAAGCUG
Procedure, shortened: as §1

[5] = tested on: biotinyl-Met-oxazolone; assay: self-aminoacylation, catalytic enhancement (BMO) (fold over background); higher = more active; k-Seq, kA / k0A0; sequences stand for … in GGGAAUGGAUCCACAUCUACGAAUUC…UUCACUGCAGACUUGACGAAGCUG
Procedure, shortened: as §1

[6] = tested on: biotinyl-Ile-oxazolone; assay: self-aminoacylation, catalytic enhancement (BIO) (fold over background); higher = more active; k-Seq, kA / k0A0; sequences stand for … in GGGAAUGGAUCCACAUCUACGAAUUC…UUCACUGCAGACUUGACGAAGCUG
Procedure, shortened: as §1

Sequence | self-aminoacylation [1] | self-aminoacylation [2] | self-aminoacylation [3] | self-aminoacylation [4] | self-aminoacylation [5] | self-aminoacylation [6]
AUACACCUAUGUCAUCGGGUG [Fam2.2 aminoacylation ribozyme variant] | 2.52 | 3.58 | 17.3 | 3.86 | 3.42 | 2.46
AUUAUCCUGGUCAUCGAGUGA [Fam2.1 aminoacylation ribozyme variant] | 6.5 | 14.5 | 20.7 | 13.5 | 13 | 6.23
CUGCUUCCAACAAUCGGUCUG [Fam1A.1 aminoacylation ribozyme variant] | 0.691 | 1.02 | 1.03 | 0.73 | 0.737 | 0.634
AUUCACCUGGGUCACCGGGUG [Fam2.2 aminoacylation ribozyme variant] | 2.97 | 5.36 | 22.4 | 5.41 | 4.54 | 3.43
AUUUCCCUGGUCAUCGAGUGU [Fam2.1 aminoacylation ribozyme variant] | 7.71 | 12.4 | 26.8 | 14.6 | 14.9 | 6.35
AAGUUUGCUAAUAGUCGCAAC [Fam3.1 aminoacylation ribozyme variant] | 0.935 | 1.06 | 1.28 | 0.816 | 0.904 | 0.972
AUUCACUUAGGUCAUCGAGUG [Fam2.2 aminoacylation ribozyme variant] | 1.64 | 1.99 | 4.43 | 2.75 | 2.42 | 1.68
CCACACUUCAAUCAAACGGUC [Fam1B.1 aminoacylation ribozyme variant] | 0.757 | 0.456 | 0.747 | 0.575 | 0.543 | 0.618
CUACUUCAAACACUCCGUCUG [Fam1A.1 aminoacylation ribozyme variant] | 0.869 | 0.771 | 0.78 | 0.727 | 0.845 | 0.772
AUCACCCUGAUCAUCGAGUGA [Fam2.1 aminoacylation ribozyme variant] | 4.32 | 10.9 | 62.3 | 10.2 | 10.8 | 4.86
AUUACCCUGGUGAUCGAAUGA [Fam2.1 aminoacylation ribozyme variant] | 1.09 | 0.949 | 0.432 | 1.02 | 0.846 | 0.957
CUACUACAAACAAGCGGUCUG [Fam1A.1 aminoacylation ribozyme variant] | 1.2 | 0.883 | 0.606 | 1.25 | 1.1 | 1.11
CUACUUCAAACAUUGGGUCUG [Fam1A.1 aminoacylation ribozyme variant] | 0.977 | 0.716 | 0.555 | 0.868 | 0.944 | 0.914
CUACUUCAAACAUUCGGUGUG [Fam1A.1 aminoacylation ribozyme variant] | 1.51 | 1.39 | 8.08 | 1.73 | 1.82 | 1.4
AUUACCGUUGUCAUCGAGUGA [Fam2.1 aminoacylation ribozyme variant] | 4.16 | 9.94 | 40.2 | 8.01 | 7.75 | 4.49
ACUCACCUAGGUCAUCGGGUA [Fam2.2 aminoacylation ribozyme variant] | 10.1 | 14.9 | 157 | 27 | 19.9 | 11.4
CCACAAUUCAAGCAGUCGGUC [Fam1B.1 aminoacylation ribozyme variant] | 1.22 | 0.925 | 1.06 | 1.17 | 1.11 | 1.36
AUUUACCUGGUCAUCGAGUGA [Fam2.1 aminoacylation ribozyme variant] | 4.29 | 8.91 | 8.89 | 7.77 | 7.97 | 4
CUACAUAAAACAAUCGGUCUG [Fam1A.1 aminoacylation ribozyme variant] | 0.799 | 0.539 | 0.674 | 0.738 | 0.934 | 0.808
AUUCAUCUAGGGCAUCGGGUG [Fam2.2 aminoacylation ribozyme variant] | 2.97 | 2.7 | 21.4 | 4.32 | 3.45 | 2.81
AUUCACCGACGUCAUCGGGUG [Fam2.2 aminoacylation ribozyme variant] | 6.24 | 9.46 | 55.1 | 12.9 | 10.2 | 5.71
AUUCACCUAGGUCAUCCGGUA [Fam2.2 aminoacylation ribozyme variant] | 2.3 | 1.87 | 6.52 | 2.3 | 2.17 | 2.36
AUUCACCUUGGUGAUCGGGUG [Fam2.2 aminoacylation ribozyme variant] | 3.7 | 5.35 | 23.8 | 4.24 | 3.12 | 3.1
AUUUCCCUAGUCAUCGAGUGA [Fam2.1 aminoacylation ribozyme variant] | 4.03 | 7.31 | 31.5 | 6.58 | 6.04 | 3.46
CUACUCUAAACAAUCGGUCUG [Fam1A.1 aminoacylation ribozyme variant] | 0.873 | 0.651 | 0.77 | 0.727 | 0.776 | 0.808
CCACGCUUCAAGCAAUCGGUU [Fam1B.1 aminoacylation ribozyme variant] | 1.93 | 16.7 | 20 | 1.92 | 1.44 | 1.33

Sequence | self-aminoacylation [1] | self-aminoacylation [2] | self-aminoacylation [3] | self-aminoacylation [4] | self-aminoacylation [5] | self-aminoacylation [6]
AUCACGCUGGUCAUCGAGUGA [Fam2.1 aminoacylation ribozyme variant] | 4.4 | 6.96 | 33.1 | 5.91 | 6.1 | 4.36
AAGUUUGGUAAUAGUCGCAAG [Fam3.1 aminoacylation ribozyme variant] | 1.19 | 1.38 | 2.13 | 1.25 | 1.22 | 1.32
AAGUUUGAGAAUAGUCGCAAG [Fam3.1 aminoacylation ribozyme variant] | 1.29 | 1.59 | 2.05 | 1.25 | 1.2 | 1.48
AUUACUCUGGUCAUCGGGUGA [Fam2.1 aminoacylation ribozyme variant] | 6.05 | 12.2 | 39.7 | 11.8 | 10.1 | 5.43
AUUCACCUCGGUCAUCUGGUG [Fam2.2 aminoacylation ribozyme variant] | 2.16 | 3.2 | 29.2 | 4.16 | 3.29 | 2.17
CUUCCCCUGGUCAUCGAGUGA [Fam2.1 aminoacylation ribozyme variant] | 3.42 | 7.51 | 40.1 | 6.32 | 5.92 | 3.23
GUUACCCUGGUCACCGAGUGA [Fam2.1 aminoacylation ribozyme variant] | 6.95 | 14.8 | 79.2 | 13.1 | 11.2 | 5.31
AAGUUUACUAAGAGUCGCAAG [Fam3.1 aminoacylation ribozyme variant] | 1.36 | 1.69 | 1.93 | 1.36 | 1.37 | 1.47
AUUACCCUGGUCAUUGAGUGA [Fam2.1 aminoacylation ribozyme variant] | 4.49 | 10.8 | 44.1 | 8.58 | 9.01 | 4.27
AUUCGUCUAGGUCAUCGGGUG [Fam2.2 aminoacylation ribozyme variant] | 4.85 | 6.11 | 43.2 | 5.27 | 4.96 | 4.9
ACAGACUUCAAGCAAUCGGUC [Fam1B.1 aminoacylation ribozyme variant] | 2.27 | 38.2 | 68.1 | 3.24 | 2.39 | 2.39
UUUGACCUAGGUCAUCGGGUG [Fam2.2 aminoacylation ribozyme variant] | 4.23 | 6.51 | 26.6 | 5.93 | 4.5 | 4.3
AUUACCCUGGUCAGCGGGUGA [Fam2.1 aminoacylation ribozyme variant] | 6.36 | 10.1 | 68.2 | 10.1 | 9.2 | 5.3
AUUCACGGAGGUCAUCGGGUG [Fam2.2 aminoacylation ribozyme variant] | 6.35 | 7.23 | 65.1 | 9.33 | 7.36 | 4.28
AUUCACCUAGGGCAUCAGGUG [Fam2.2 aminoacylation ribozyme variant] | 1.46 | 1.55 | 1.46 | 1.7 | 1.6 | 1.35
GCUCACUUCAAGCAAUCGGUC [Fam1B.1 aminoacylation ribozyme variant] | 1.67 | 10.9 | 16.7 | 1.77 | 1.58 | 1.69
AUUACGCUGGUCAUCGAGGGA [Fam2.1 aminoacylation ribozyme variant] | 2.03 | 2.25 | 1.38 | 1.98 | 1.46 | 1.61
CCACACUUCAAGCUAUCGGUA [Fam1B.1 aminoacylation ribozyme variant] | 1.18 | 1.29 | 0.934 | 1.28 | 0.992 | 1.16
AUUCACGUAGGUUAUCGGGUG [Fam2.2 aminoacylation ribozyme variant] | 5.09 | 4.68 | 38.9 | 4.91 | 5.38 | 3.34
AUUACCAUGGUCAUCGAGUGC [Fam2.1 aminoacylation ribozyme variant] | 1.17 | 1.35 | 0.948 | 1.47 | 1.38 | 1.12
AUUCACCUAGGUCAUCGGGCC [Fam2.2 aminoacylation ribozyme variant] | 2.97 | 4.4 | 14.7 | 4.1 | 3.51 | 2.73
CCACACUUUAAGCAAUCGGGC [Fam1B.1 aminoacylation ribozyme variant] | 1.34 | 1.01 | 1.22 | 1.65 | 1.63 | 1.61
AAGUCCGCUAAUAGUCGCAAG [Fam3.1 aminoacylation ribozyme variant] | 2.09 | 10.7 | 46.3 | 2.02 | 2.99 | 2.43
CCACAUUUCAAGCACUCGGUC [Fam1B.1 aminoacylation ribozyme variant] | 1.37 | 0.97 | 0.933 | 1.16 | 1.15 | 1.25
CCACAGUUCAAGAAAUCGGUC [Fam1B.1 aminoacylation ribozyme variant] | 1.18 | 1.67 | 1.71 | 1.22 | 1.22 | 1.06

From the supplement of paper PMC9233669
